In paper PMC5095173, “Disulfide-activated protein kinase G Iα regulates cardiac diastolic relaxation and fine-tunes the Frank–Starling response” (Nature Communications, 2016):
Each block holds one substance with its values, some of them ahead of it.

Assays:
C42S PKGIα (human) = assay: ITC; PLN (1–23) (700 μM) titrated into the cell containing WT disulfide PKGIα or the C42S mutant (70 μM); 25 °C; 50 mM sodium phosphate buffer pH 7.4, 100 mM NaCl; no cyclic nucleotide
[1] = molecular target: PKGIα (WT mouse heart) (mouse (endogenous in mouse heart)) (UniProt P0C605); assay: cross-linking; intermolecular disulfide dimer of PKGIα in perfused mouse hearts (0 or 5 mm Hg EDP), homogenised with 100 mM maleimide, SDS-PAGE without reducing agent and immunoblot
[2] = molecular target: Cardiac phospholamban (rat heart homogenate) (rat (endogenous in rat left ventricle)) (UniProt P61016)
Sequence of Cardiac phospholamban (rat heart homogenate) (rat (endogenous in rat left ventricle)) (P61016 whole entry): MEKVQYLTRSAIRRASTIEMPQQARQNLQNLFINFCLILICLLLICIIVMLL

[3] = molecular target: PKGIα M438G (analogue-sensitive mutant), disulfide dimer (human); assay: cross-linking; intermolecular Cys42 disulfide of purified recombinant PKGIα (lipoic acid or air oxidation) seen as dimer by SDS-PAGE

Sequence of N-terminally acetylated peptide of the N-terminal cytoplasmic domain of human phospholamban, PLN (amino acid 1-23) (P26678 1-23): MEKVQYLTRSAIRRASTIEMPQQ
Sequence of PKGIα (WT mouse heart) (P0C605 2-671): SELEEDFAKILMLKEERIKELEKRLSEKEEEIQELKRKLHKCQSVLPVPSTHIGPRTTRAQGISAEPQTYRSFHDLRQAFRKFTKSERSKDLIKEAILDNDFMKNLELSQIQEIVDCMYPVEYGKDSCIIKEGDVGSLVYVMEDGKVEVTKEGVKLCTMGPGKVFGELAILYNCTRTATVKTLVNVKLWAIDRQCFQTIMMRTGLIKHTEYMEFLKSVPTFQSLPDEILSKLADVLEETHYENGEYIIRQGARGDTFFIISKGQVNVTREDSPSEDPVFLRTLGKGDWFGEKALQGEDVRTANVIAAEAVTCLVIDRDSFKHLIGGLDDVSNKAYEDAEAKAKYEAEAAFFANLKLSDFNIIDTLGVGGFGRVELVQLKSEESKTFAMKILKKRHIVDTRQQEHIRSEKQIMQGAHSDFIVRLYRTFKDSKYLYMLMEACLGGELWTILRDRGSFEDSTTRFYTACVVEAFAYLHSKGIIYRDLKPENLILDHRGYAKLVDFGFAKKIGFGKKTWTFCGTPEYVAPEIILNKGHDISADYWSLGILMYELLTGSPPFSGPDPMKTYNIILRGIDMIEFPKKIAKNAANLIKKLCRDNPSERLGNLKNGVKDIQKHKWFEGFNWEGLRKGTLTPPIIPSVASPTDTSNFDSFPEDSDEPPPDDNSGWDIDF

fold change of Kd against WT PKGIα disulfide dimer (C42S PKGIα (human)): > 5 fold
Substance: N-terminally acetylated peptide of the N-terminal cytoplasmic domain of human phospholamban, PLN (amino acid 1-23) (from UniProt P26678 1-23)

stoichiometry N [1]: 2
Substance: PKGIα (WT mouse heart) (from UniProt P0C605 1-671) (enzyme)

log2 fold change in abundance of the PLN pSer16 phosphopeptide (thiophosphorylation in rat heart homogenate), disulfide-activated PKGIα M438G versus basal PKGIα C42S/M438G control (log2 fold change) [2]: 0.41 | stoichiometry N [3]: 2
Substance: PKGIα M438G (analogue-sensitive mutant), disulfide dimer (enzyme)
